Ends that are not written are not given here.
Key:
Experiment in all cases: peptide microarray
[1] = molecular target: T1, wild-type ApoC3 peptide DKFSEFWDLDPEV (SEQ ID NO: 44) (human, not fully specified (bridges); also: cyclic constrained, ring type and positions not given here)
T1 construct: 13 aa cyclic constrained peptide
T1 peptide: DKFSEFWDLDPEV
Procedure: (§1) F64 was completely variable.
(§2) Pre: staining of one of the ApoC3 peptide microarrays was done with the secondary antibody goat anti-human IgG (Fe) DyLight680 (1:5000) and control antibody mouse monoclonal anti-HA (12CA5) DyLight800 (1:2000) to investigate background interactions of the secondary antibody with the antigen-derived peptides that could interfere with the main assays. Subsequent incubation of other ApoC3 peptide microarrays with antibody samples was followed by staining with secondary and control antibodies as well as read-out at scanning intensities of 7/7 (red/green). The additional HA peptides framing the peptide arrays were stained as internal quality control to confirm the assay quality and the peptide microarray integrity.

ApoC3 peptide … D59A = molecular target: T2, ApoC3 peptide … D59A (human, cyclic constrained)
T2 peptide: AKFSEFWDLDPEV
Procedure: as §1, §2

ApoC3 peptide … F61A = molecular target: T3, ApoC3 peptide … F61A (human, cyclic constrained)
T3 peptide: DKASEFWDLDPEV
Procedure: as §1, §2

ApoC3 peptide … S62A = ApoC3 peptide … S62A (human, cyclic constrained)
Procedure: as §1, §2

ApoC3 peptide … P69A = molecular target: T4, ApoC3 peptide … P69A (human, not fully specified (bridges); also: cyclic constrained)
T4 peptide: DKFSEFWDLDAEV
Procedure: as §1, §2

ApoC3 peptide … D59C = molecular target: T5, ApoC3 peptide … D59C (human, cyclic constrained)
T5 peptide: CKFSEFWDLDPEV
Procedure: as §1, §2

ApoC3 peptide … L67C = molecular target: T6, ApoC3 peptide … L67C (human, not fully specified (bridges); also: cyclic constrained)
T6 peptide: DKFSEFWDCDPEV
Procedure: as §1, §2

ApoC3 peptide … V71C = ApoC3 peptide … V71C (human, cyclic constrained)
Procedure: as §1, §2

ApoC3 peptide … F61D = molecular target: T7, ApoC3 peptide … F61D (human, cyclic constrained)
T7 peptide: DKDSEFWDLDPEV
Procedure: as §1, §2

ApoC3 peptide … D59E = molecular target: T8, ApoC3 peptide … D59E (human, cyclic constrained)
T8 peptide: EKFSEFWDLDPEV
Procedure: as §1, §2

ApoC3 peptide … F61E = molecular target: T9, ApoC3 peptide … F61E (human, cyclic constrained)
T9 peptide: DKESEFWDLDPEV
Procedure: as §1, §2

ApoC3 peptide … E63F = ApoC3 peptide … E63F (human, cyclic constrained)
Procedure: as §1, §2

ApoC3 peptide … D66F = molecular target: T10, ApoC3 peptide … D66F (human, not fully specified (bridges); also: cyclic constrained)
T10 peptide: DKFSEFWFLDPEV
Procedure: as §1, §2

ApoC3 peptide … D68H = molecular target: T11, ApoC3 peptide … D68H (human, cyclic constrained)
T11 peptide: DKFSEFWDLHPEV
Procedure: as §1, §2

ApoC3 peptide … V71H = ApoC3 peptide … V71H (human, cyclic constrained)
Procedure: as §1, §2

ApoC3 peptide … F61I = molecular target: T12, ApoC3 peptide … F61I (human, cyclic constrained)
T12 peptide: DKISEFWDLDPEV
Procedure: as §1, §2

ApoC3 peptide … L67I = molecular target: T13, ApoC3 peptide … L67I (human, not fully specified (bridges); also: cyclic constrained)
T13 peptide: DKFSEFWDIDPEV
Procedure: as §1, §2

ApoC3 peptide … D66K = molecular target: T14, ApoC3 peptide … D66K (human, not fully specified (bridges); also: cyclic constrained)
T14 peptide: DKFSEFWKLDPEV
Procedure: as §1, §2

ApoC3 peptide … V71K = ApoC3 peptide … V71K (human, cyclic constrained)
Procedure: as §1, §2

ApoC3 peptide … W65L = molecular target: T15, ApoC3 peptide … W65L (human, not fully specified (bridges); also: cyclic constrained, ring type and places not given here)
T15 peptide: DKFSEFLDLDPEV
Procedure: as §1, §2

ApoC3 peptide … E63M = ApoC3 peptide … E63M (human, cyclic constrained)
Procedure: as §1, §2

ApoC3 peptide … D68M = molecular target: T16, ApoC3 peptide … D68M (human, cyclic constrained)
T16 peptide: DKFSEFWDLMPEV
Procedure: as §1, §2

ApoC3 peptide … D59N = molecular target: T17, ApoC3 peptide … D59N (human, cyclic constrained)
T17 peptide: NKFSEFWDLDPEV
Procedure: as §1, §2

ApoC3 peptide … L67N = molecular target: T18, ApoC3 peptide … L67N (human, not fully specified (bridges); also: cyclic constrained)
T18 peptide: DKFSEFWDNDPEV
Procedure: as §1, §2

ApoC3 peptide … D68N = molecular target: T19, ApoC3 peptide … D68N (human, cyclic constrained)
T19 peptide: DKFSEFWDLNPEV
Procedure: as §1, §2

ApoC3 peptide … E70N = molecular target: T20, ApoC3 peptide … E70N (human, not fully specified (bridges); also: cyclic constrained)
T20 peptide: DKFSEFWDLDPNV
Procedure: as §1, §2

ApoC3 peptide … E63P = ApoC3 peptide … E63P (human, cyclic constrained)
Procedure: as §1, §2

ApoC3 peptide … W65R = molecular target: T21, ApoC3 peptide … W65R (human, not fully specified (bridges); also: cyclic constrained, ring type and places not given here)
T21 peptide: DKFSEFRDLDPEV
Procedure: as §1, §2

ApoC3 peptide … E70R = molecular target: T22, ApoC3 peptide … E70R (human, not fully specified (bridges); also: cyclic constrained)
T22 peptide: DKFSEFWDLDPRV
Procedure: as §1, §2

ApoC3 peptide … E70S = molecular target: T23, ApoC3 peptide … E70S (human, cyclic constrained)
T23 peptide: DKFSEFWDLDPSV
Procedure: as §1, §2

ApoC3 peptide … D59V = molecular target: T24, ApoC3 peptide … D59V (human, not fully specified (bridges); also: cyclic constrained)
T24 peptide: VKFSEFWDLDPEV
Procedure: as §1, §2

ApoC3 peptide … F64V = molecular target: T25, ApoC3 peptide … F64V (human, not fully specified (bridges); also: cyclic constrained)
T25 peptide: DKFSEVWDLDPEV
Procedure: as §1, §2

ApoC3 peptide … L67V = molecular target: T26, ApoC3 peptide … L67V (human, not fully specified (bridges); also: cyclic constrained)
T26 peptide: DKFSEFWDVDPEV
Procedure: as §1, §2

ApoC3 peptide … F64W = molecular target: T27, ApoC3 peptide … F64W (human, not fully specified (bridges); also: cyclic constrained)
T27 peptide: DKFSEWWDLDPEV
Procedure: as §1, §2

ApoC3 peptide … L67W = molecular target: T28, ApoC3 peptide … L67W (human, not fully specified (bridges); also: cyclic constrained)
T28 peptide: DKFSEFWDWDPEV
Procedure: as §1, §2

ApoC3 peptide … F61Y = molecular target: T29, ApoC3 peptide … F61Y (human, not fully specified (bridges); also: cyclic constrained)
T29 peptide: DKYSEFWDLDPEV
Procedure: as §1, §2

B1: anti-ApoC3 antibody 6A6 (antibody, V domains shown)
VH: EVQLVESGGGLVQPGGSLRLSCAASGFTFSSYAGRWVRQVPGKGLEWVSSINAGGGSTSYADSVKGRFTISRDNAKNTLYLQMNSLKPEDTAKYYCTQNSYRYWGQGTRVAVSS
VL: DVVLTQTPGSLSVVPGESASISCKASQSLIHTDGKTYLYWLLQKPGQRPQLLIYQVSSHESGVPDRFTGSGSGTDFTLKISGVKAEDAGVYYCAQATYNPRTFGQGTKLEIK
notes: it was detected with goat anti-human IgG (Fc); also called mAb 6A6; llama antibody 6A6
For B1, the “% of binding to wild-type peptide” value [1] was 100%, the “% of binding to wild-type peptide” value (ApoC3 peptide … D59A) was 86.4% and the “% of binding to wild-type peptide” value (ApoC3 peptide … F61A) was 41.1%. The “% of binding to wild-type peptide” value (ApoC3 peptide … S62A) was 97.3%, the “% of binding to wild-type peptide” value (ApoC3 peptide … P69A) was 57.4% and the “% of binding to wild-type peptide” value (ApoC3 peptide … D59C) was 69.2%. The “% of binding to wild-type peptide” value (ApoC3 peptide … L67C) was 1.13%, the “% of binding to wild-type peptide” value (ApoC3 peptide … V71C) was 100% and the “% of binding to wild-type peptide” value (ApoC3 peptide … F61D) was 31.3%. The “% of binding to wild-type peptide” value (ApoC3 peptide … D59E) was 170%, the “% of binding to wild-type peptide” value (ApoC3 peptide … F61E) was 83.9% and the “% of binding to wild-type peptide” value (ApoC3 peptide … E63F) was 8.5%. The “% of binding to wild-type peptide” value (ApoC3 peptide … D66F) was 7.27%, the “% of binding to wild-type peptide” value (ApoC3 peptide … D68H) was 0% and the “% of binding to wild-type peptide” value (ApoC3 peptide … V71H) was 75.9%. The “% of binding to wild-type peptide” value (ApoC3 peptide … F61I) was 44.3%, the “% of binding to wild-type peptide” value (ApoC3 peptide … L67I) was 105% and the “% of binding to wild-type peptide” value (ApoC3 peptide … D66K) was 0.33%. For the same binder, the “% of binding to wild-type peptide” value (ApoC3 peptide … V71K) was 58.7%, the “% of binding to wild-type peptide” value (ApoC3 peptide … W65L) was 18.5% and the “% of binding to wild-type peptide” value (ApoC3 peptide … E63M) was 43.5%. The “% of binding to wild-type peptide” value (ApoC3 peptide … D68M) was 0%, the “% of binding to wild-type peptide” value (ApoC3 peptide … D59N) was 77.5% and the “% of binding to wild-type peptide” value (ApoC3 peptide … L67N) was 19.8%. The “% of binding to wild-type peptide” value (ApoC3 peptide … D68N) was 0%, the “% of binding to wild-type peptide” value (ApoC3 peptide … E70N) was 0.15% and the “% of binding to wild-type peptide” value (ApoC3 peptide … E63P) was 138%. The “% of binding to wild-type peptide” value (ApoC3 peptide … W65R) was 7.71%, the “% of binding to wild-type peptide” value (ApoC3 peptide … E70R) was 0% and the “% of binding to wild-type peptide” value (ApoC3 peptide … E70S) was 1.05%. The “% of binding to wild-type peptide” value (ApoC3 peptide … D59V) was 65.1%, the “% of binding to wild-type peptide” value (ApoC3 peptide … F64V) was 86% and the “% of binding to wild-type peptide” value (ApoC3 peptide … L67V) was 56.5%. The “% of binding to wild-type peptide” value (ApoC3 peptide … F64W) was 69.5%, the “% of binding to wild-type peptide” value (ApoC3 peptide … L67W) was 1.26% and the “% of binding to wild-type peptide” value (ApoC3 peptide … F61Y) was 112%.
